According to IntAct's records for PubMed 16834335:

B1: Modulator of FtsH protease HflC (Escherichia coli (strain K12)), P0ABC3 (parent)
chain: MRKSVIAIIIIVLVVLYMSVFVVKEGERGITLRFGKVLRDDDNKPLVYEPGLHFKIPFIETVKMLDARIQTMDNQADRFVTKEKKDLIVDSYIKWRISDFSRYYLATGGGDISQAEVLLKRKFSDRLRSEIGRLDVKDIVTDSRGRLTLEVRDALNSGSAGTEDEVTTPAADNAIAEAAERVTAETKGKVPVINPNSMAALGIEVVDVRIKQINLPTEVSEAIYNRMRAEREAVARRHRSQGQEEAEKLRATADYEVTRTLAEAERQGRIMRGEGDAEAAKLFADAFSKDPDFYAFIRSLRAYENSFSGNQDVMVMSPDSDFFRYMKTPTSATR
partner: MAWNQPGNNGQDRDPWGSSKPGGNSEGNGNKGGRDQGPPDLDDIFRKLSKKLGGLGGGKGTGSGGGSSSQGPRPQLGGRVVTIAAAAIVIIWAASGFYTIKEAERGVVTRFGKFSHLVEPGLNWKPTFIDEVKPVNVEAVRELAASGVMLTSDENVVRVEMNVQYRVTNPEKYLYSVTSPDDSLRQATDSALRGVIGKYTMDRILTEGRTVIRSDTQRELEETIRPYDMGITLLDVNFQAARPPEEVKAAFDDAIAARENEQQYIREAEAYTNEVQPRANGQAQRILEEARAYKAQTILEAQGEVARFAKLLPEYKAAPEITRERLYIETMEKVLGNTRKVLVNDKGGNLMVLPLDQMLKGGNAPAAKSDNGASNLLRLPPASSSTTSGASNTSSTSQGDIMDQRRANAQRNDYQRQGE

Variants of: B1
Conditions: with hflk_ecoli hflK

Variant | effect of a mutation on the interaction
MRKSVIAIIIIVLVVLYMSVFVVKEGERGITLRFGKVLRDDDNKPLVYEPGLHFKIPFIETVKMLDARIQTMDNQADRFVTKEKKDLIVDSYIKWRISDFSRYYLATGGGDISQAEVLLKRKFSDRLRSEIGRLDVKDIVTDSRGRLTLEVRDALNSGSAGTEDEVTTPAADNAIAEAAERVTAETKGKVPVINPNSMAALGIEVVDVRIKQINLPTEVSEAIYNRMRAEREAVARRHRSQGQEEAEKLRATADYEVTRTLAEAERQGRIMRGEGDAEAAKLFADIFSKDPDFYAFIRSLRAYENSFSGNQDVMVMSPDSDFFRYMKTPTSATR [A286I] | decreasing interaction strength
